Measured values reported in PMC10699647, “Structural basis of G protein–Coupled receptor CMKLR1 activation and signaling induced by a chemerin-derived agonist” (PLOS Biology, 2023).

Legend:
CMKLR1 = conditions: cited from earlier work
Description: The apparent contradictory functional roles of CMKLR1 in inflammation may be associated with the spatiotemporal regulation of the inflammation processes in cells. It is possible that in the early stage of inflammation, the CMKLR1 signaling is mainly pro-inflammatory by promoting chemotaxis and activation of DCs and macrophages, whereas at the late stage of inflammation, CMKLR1 activation can induce pro-resolving pathways to dampen inflammation. Another possibility for the differing effects of CMKLR1 signaling on inflammation is that different chemerin isoforms may activate CMKLR1 to induce dis ... || The potential roles of CMKLR1 signaling in inflammation may provide promising new opportunities for developing anti-inflammatory drugs. […] Nevertheless, the only commercially a ...

[1] = system: primary human macrophages; assay: Macrophage differentiation assay, surface markers by flow cytometry (MFI fold-change); conditions: 72 hours, 10 ng/mL (each), vs M0, n = 4 donors
Description: Monocytes were enriched from human PBMC by CD14 beads positive selection (Miltenyi Biotec) and cultured in IMDM supplanted with 10% human AB serum (Omega Scientific, Cat# HS-20) for 7 days for them to differentiate to macrophages.
Differentiated macrophages were then replated to low-bind plate at 0.15 million cells per 24-well plate, in 500 μl medium overnight before stimulated with various condition. Human macrophage medium was used as M0 reference culture condition, while 10 ng/ml IFNg plus 10 ng/ml LPS supplement were used as M1 reference, and 10 ng/ml IL-10 supplement used as M2 reference. […] Data were acquired on Cytek Aurora flowcytometry, analysis on Flowjo. MFI quantifications were normalized to M0 condition and statistically analyzed by 2-way ANOVA, with Dunnett’s multiple comparisons test; all groups were pair analyzed with M0 group as reference.

Molecule: C[N+](C)(C)CCC(=O)c1cccc2ccccc12.[I-] [α-NETA]
- potency against CMKLR1 (CMKLR1; antagonist, ref [30]): low micromolar potency

Molecule: chemerin15: synthetic peptide corresponding to the 141–155 amino acid segment of chemerin (AGEDPHSFYFPGQFA; UniProt Q99969 141-155, looked up, fragment)
- agonism and anti-inflammatory effects (CMKLR1; CMKLR1, ref [9]): stable agonists of CMKLR1 that induce anti-inflammatory effects

B1: IL-10: 10 ng/ml IL-10 supplement used as M2 reference (protein, UniProt P22301 19-178, looked up)
Interleukin-10: SPGQGTQSENSCTHFPGNLPNMLRDLRDAFSRVKTFFQMKDQLDNLLLKESLLEDFKGYLGCQALSEMIQFYLEEVMPQAENQDPDIKAHVNSLGENLKTLRLRLRRCHRFLPCENKSKAVEQVKNAFNKLQEKGIYKAMSEFDIFINYIEAYMTMKIRN
- CD86 expression in words [1]: down-regulation
- CD163 expression in words [1]: up-regulation
- CD206 expression in words [1]: up-regulation
